# Measured values: patent publication US20230028880A1, “CD38-BINDING AGENTS AND USES THEREOF” (Biohaven Therapeutics Ltd., priority 2019, published 2023)
# Where “and” joins values, the source holds several entries; their conditions need not be identical. Identical values can stand only once. Like-named read-outs stand apart in the source and are kept apart here. *1 amine or outer side, *2 acyl side, *3 side chain or, on linkers, in order; H or OH if unused. Bridges are numbered along the chain shown (N, C = ends). Roman numbers before positions name the chains, in order. Where no end group is shown, it is not given here. [ ]: non-standard residue; d: D form. d(γGlu) = O=C(O)[C@@H](CCC(=O)[*:2])N[*:1]; Bip = N[C@@H](Cc1ccc(-c2ccccc2)cc1)C(=O)O; PEG8 = NCCOCCOCCOCCOCCOCCOCCOCCOCCC(=O)O; NMeF = CN[C@@H](Cc1ccccc1)C(=O)O; Ahp(2) = CCCCC[C@H](N)C(=O)O
# B1: A L H MeF V A P Bph V W V C (peptide)
# peptide: ALH[NMeF]VAP[Bip]VWVC
# modifications: not fully specified (N-terminus, bridges); printed as A L H MeF V A P Bph V W V C
# notes: Alanine variant at position 6
# B2: A L H MeF V L P Bph V A V C (peptide)
# peptide: ALH[NMeF]VLP[Bip]VAVC
# modifications: not fully specified (N-terminus, bridges); printed as A L H MeF V L P Bph V A V C
# notes: Alanine variant at position 10
# B3: A A H MeF V L P Bph V W V C (peptide)
# peptide: AAH[NMeF]VLP[Bip]VWVC
# modifications: not fully specified (N-terminus, bridges); printed as A A H MeF V L P Bph V W V C
# B4: A R Ahp A H D G V L Bph Ahp D C (peptide)
# peptide: AR[Ahp(2)]AHDGVL[Bip][Ahp(2)]DC
# modifications: not fully specified (N-terminus, bridges); printed as A R Ahp A H D G V L Bph Ahp D C
# notes: Alanine variant at position 4
# B5: A R Ahp Y A D G V L Bph Ahp D C (peptide)
# peptide: AR[Ahp(2)]YADGVL[Bip][Ahp(2)]DC
# modifications: not fully specified (N-terminus, bridges); printed as A R Ahp Y A D G V L Bph Ahp D C
# notes: Alanine variant at position 5
# B6: A R Ahp Y H D G A L Bph Ahp D C (peptide)
# peptide: AR[Ahp(2)]YHDGAL[Bip][Ahp(2)]DC
# modifications: not fully specified (N-terminus, bridges); printed as A R Ahp Y H D G A L Bph Ahp D C
# notes: Alanine variant at position 8
# B7: I-27 (peptide)
# peptide 1: ARXYHDGVLXXDC
# peptide 2: DCAWHLGELVWCT
# modifications: not fully specified; Cys2-Cys12 disulfide; N-terminus extended by D-Glu(side chain amide of 12-aminododecanoic acid)-PEG6-; X3 and X11 = Ahp ((S)-2-aminoheptanoic acid), X10 = Bph (4-biphenylylalanine); N-terminal -C(O)CH2- (from 2-bromoacetic acid) thioether-linked to S of Cys13; C-terminus carries PEG10 linker
# B8: A L H MeF A L P Bph V W V C (peptide)
# peptide: ALH[NMeF]ALP[Bip]VWVC
# modifications: not fully specified (N-terminus, bridges); printed as A L H MeF A L P Bph V W V C
# notes: Alanine variant at position 5
# B9: A L A MeF V L P Bph V W V C (peptide)
# peptide: ALA[NMeF]VLP[Bip]VWVC
# modifications: not fully specified (N-terminus, bridges); printed as A L A MeF V L P Bph V W V C
# notes: Alanine variant at position 3
# B10: I-39 (peptide)
# peptide 1: ARXYHDGVLXXDC
# peptide 2: DCAWHLGELVWCT
# modifications: Cys2-Cys12 disulfide; N-terminus extended by hydrazinecarbonyl (urea from Boc-NH-NH2 and CDI)-PEG6-; X3 and X11 = Ahp ((S)-2-aminoheptanoic acid), X10 = Bph (4-biphenylylalanine); N-terminal -C(O)CH2- (from 2-bromoacetic acid) thioether-linked to S of Cys13; C-terminus carries PEG10 linker
# B11: A L H MeF V L P Bph A W V C (peptide)
# peptide: ALH[NMeF]VLP[Bip]AWVC
# modifications: not fully specified (N-terminus, bridges); printed as A L H MeF V L P Bph A W V C
# notes: Alanine variant at position 9
# B12: I-33 (peptide)
# peptide 1: ARXYHDGVLXXDC
# peptide 2: DCAWHLGELVWCT
# modifications: Cys2-Cys12 disulfide; N-terminus extended by PEG8-; X3 and X11 = Ahp ((S)-2-aminoheptanoic acid), X10 = Bph (4-biphenylylalanine); N-terminal -C(O)CH2- (from 2-bromoacetic acid) thioether-linked to S of Cys13; C-terminus carries PEG8 linker
# B13: A R Ahp Y H D G V A Bph Ahp D C (peptide)
# peptide: AR[Ahp(2)]YHDGVA[Bip][Ahp(2)]DC
# modifications: not fully specified (N-terminus, bridges); printed as A R Ahp Y H D G V A Bph Ahp D C
# notes: Alanine variant at position 9
# B14: A R Ahp Y H A G V L Bph Ahp D C (peptide)
# peptide: AR[Ahp(2)]YHAGVL[Bip][Ahp(2)]DC
# modifications: not fully specified (N-terminus, bridges); printed as A R Ahp Y H A G V L Bph Ahp D C
# notes: Alanine variant at position 6
# B15: A L H A V L P Bph V W V C (peptide)
# peptide: ALHAVLP[Bip]VWVC
# modifications: not fully specified (N-terminus, bridges); printed as A L H A V L P Bph V W V C
# notes: Alanine variant at position 4
# B16: A L H MeF V L A Bph V W V C (peptide)
# peptide: ALH[NMeF]VLA[Bip]VWVC
# modifications: not fully specified (N-terminus, bridges); printed as A L H MeF V L A Bph V W V C
# notes: Alanine variant at position 7
# B17: I-28 (peptide)
# peptide 1: {‑C(O)CH2‑}-AR[Ahp(2)]YHDGVL[Bip][Ahp(2)]DC-{PEG8-d(γGlu)-d(γGlu)-D‑Glu(side chain amide of 12-aminododecanoic acid)-d(γGlu)-d(γGlu)-Gly-Gly}
# peptide 2: DCAWHLGELVWCT
# modifications: disulfide II:2-II:12; also: chain 2 joined to the end of the chain 1 linker, thioether at chain A 13 to a chain's N-terminus
# B18: A L H MeF V L P Bph V W A C (peptide)
# peptide: ALH[NMeF]VLP[Bip]VWAC
# modifications: not fully specified (N-terminus, bridges); printed as A L H MeF V L P Bph V W A C
# notes: Alanine variant at position 11
# B19: A L H MeF V L P A V W V C (peptide)
# peptide: ALH[NMeF]VLPAVWVC
# modifications: not fully specified; printed as A L H MeF V L P A V W V C
# notes: Alanine variant at position 8
# B20: I-30 (peptide)
# peptide 1: AR[Ahp(2)]YHDGVL[Bip][Ahp(2)]DC-{4‑aminobutanoic acid}
# peptide 2: DCAWHLGELVWCT-NH2
# modifications: disulfide II:2-II:12; also: thioether at chain A 13 to a chain's N-terminus
# B21: A R Ahp Y H D A V L Bph Ahp D C (peptide)
# peptide: AR[Ahp(2)]YHDAVL[Bip][Ahp(2)]DC
# modifications: not fully specified (N-terminus, bridges); printed as A R Ahp Y H D A V L Bph Ahp D C
# notes: Alanine variant at position 7
# Columns and labels:
# CD38 [1] = molecular target: T1, CD38 (human, UniProt P28907 43-300, limits assumed); test: ELISA; larger values represent binding
# T1 construct: also called cluster of differentiation 38; cyclic ADP ribose hydrolase
# CD38 [2] = molecular target: T1, CD38; test: ELISA; larger values represent binding; remark: listed apart in the source
# [3] = molecular target: CD38 on Daudi cells (ATCC CCL-213) (human) (UniProt P28907); test: cell-based or functional assay
# [4] = molecular target: CD38 on Daudi cells (human) (UniProt P28907); test: ternary binding, flow cytometry: Daudi cells + PE human IgG1k
# CD38 [5] = molecular target: T2, CD38 (human, UniProt P28907 1-300); test: ternary binding, flow cytometry: PE-labelled human IgG1k recruited to Daudi cells
# T2 construct: whole, on cells; also called cluster of differentiation 38; cyclic ADP ribose hydrolase
# Procedure: Various technologies can be utilized to assess and/or characterize recruitment of antibodies to target cells, e.g., cancer cells. One such assay is a ternary binding assay. An exemplary protocol is described herein. Compounds were diluted in DMSO (MP 191418) to 1000× the starting concentration used in the assay into a 96 well polypropylene plate (Corning 3357). They were then serially diluted in ½ log increments to generate 8-12 concentrations in DMSO (assay dependent). These DMSO stocks were then step diluted 1/100 into PBS (VWR Cat. #20012043). Step diluted compound range was then added into the polypropylene assay plate 1/10 the volume of the assay volume. […] The cells were then added into the polypropylene plate with the step diluted compounds and incubated at 37° C. for 30 min. At the end of the incubation, the cells were centrifuged and washed 2× with How buffer containing 0.5% Tween 20 (BP337-500). Samples were analyzed on a BD FacsCelesta. Mean fluorescence was analyzed using Graphpad Prism and curves were fit using log(inhibitor) vs. response—Variable slope (four parameters).
# CD38 [6] = molecular target: T2, CD38; test: cell-based or functional assay
binder,measurement,setting,value
B1,Binding Assay (ELISA signal),CD38 [1],0.09
B2,Binding Assay (ELISA signal),CD38 [1],0.1
B3,Binding Assay (ELISA signal),CD38 [1],0.84
B4,Binding Assay (ELISA signal),CD38 [2],0.11
B5,Binding Assay (ELISA signal),CD38 [2],0.28
B6,Binding Assay (ELISA signal),CD38 [2],0.3
B7,% dead cells at 1 nM,[3],5.6% and 5.7%
same,% dead cells at 3 nM,[3],8.2% and 7.7%
same,% dead cells at 10 nM,[3],7.9% and 8.3%
same,% dead cells at 30 nM,[3],9.4% and 10.3%
same,% dead cells at 100 nM,[3],10.3% and 9.1%
same,"EC50 (nM), killing of target cells",[3],2.4 nM
same,MFI at 0.03 nM,[4],2140 and 3880
same,MFI at 0.1 nM,[4],2880 and 2430
same,MFI at 0.3 nM,[4],3560 and 3190
same,MFI at 1 nM,[4],3130 and 2450
same,MFI at 3 nM,[4],3950 and 3970
same,MFI at 10 nM,[4],3320 and 9770
same,MFI at 30 nM,[4],7880 and 8230
same,MFI at 100 nM,[4],11500 and 10800
same,MFI at 300 nM,[4],7180 and 11100
same,MFI at 3000 nM,[4],3940 and 5160
same,IC50,CD38 [5],6 nM
same,"EC50 (nM), ADCC reporter cells",CD38 [6],3 nM
B8,Binding Assay (ELISA signal),CD38 [1],0.47
B9,Binding Assay (ELISA signal),CD38 [1],0.37
B10,% dead cells at 0.03 nM,[3],11%
same,% dead cells at 0.3 nM,[3],11.9% and 12.1%
same,% dead cells at 1 nM,[3],15.7% and 16.5%
same,% dead cells at 3 nM,[3],17.7% and 15.9%
same,% dead cells at 10 nM,[3],22.4% and 21.4%
same,% dead cells at 30 nM,[3],22.7% and 22.2%
same,% dead cells at 100 nM,[3],23.4% and 25.4%
same,% dead cells at 300 nM,[3],21.3% and 21.5%
same,MFI at 0.03 nM,[4],5280 and 4130
same,MFI at 0.1 nM,[4],6760 and 4610
same,MFI at 1 nM,[4],4580 and 5160
same,MFI at 3 nM,[4],6080 and 8740
same,MFI at 10 nM,[4],5300 and 7840
same,MFI at 30 nM,[4],9350 and 9460
same,MFI at 100 nM,[4],16400 and 17300
same,MFI at 300 nM,[4],12200 and 16900
same,MFI at 1000 nM,[4],9710 and 12000
same,MFI at 3000 nM,[4],10100 and 15000
same,IC50,CD38 [5],3.3 nM
same,"EC50 (nM), ADCC reporter cells",CD38 [6],0.61 nM
B11,Binding Assay (ELISA signal),CD38 [1],0.12
B12,% dead cells at 10 nM,[3],23.4% and 22.3%
same,% dead cells at 30 nM,[3],28.7% and 28.8%
same,% dead cells at 100 nM,[3],32.8% and 31.3%
same,% dead cells at 300 nM,[3],31.9% and 31.6%
same,% dead cells at 1000 nM,[3],22.6% and 23.3%
same,% dead cells at 3000 nM,[3],16.6%
same,"EC50 (nM), killing of target cells",[3],11 nM
same,MFI at 1 nM,[4],3470 and 3690
same,MFI at 3 nM,[4],3660 and 1850
same,MFI at 10 nM,[4],21100 and 13600
same,MFI at 30 nM,[4],23700
same,MFI at 100 nM,[4],31900 and 24200
same,MFI at 300 nM,[4],24100 and 34300
same,MFI at 1000 nM,[4],17400 and 22200
same,MFI at 3000 nM,[4],28400 and 12400
same,IC50,CD38 [5],9.3 nM
same,"EC50 (nM), ADCC reporter cells",CD38 [6],4.3 nM
B13,Binding Assay (ELISA signal),CD38 [2],0.08
B14,Binding Assay (ELISA signal),CD38 [2],0.93
B15,Binding Assay (ELISA signal),CD38 [1],0.1
B16,Binding Assay (ELISA signal),CD38 [1],0.11
B17,"EC50 (nM), ADCC reporter cells",CD38 [6],14 nM
B18,Binding Assay (ELISA signal),CD38 [1],0.41
B19,Binding Assay (ELISA signal),CD38 [1],0.09
B20,% dead cells at 1 nM,[3],14.3% and 14.7%
same,% dead cells at 3 nM,[3],14.7% and 15.7%
same,% dead cells at 10 nM,[3],14.1%
same,% dead cells at 30 nM,[3],16.3% and 15.3%
same,% dead cells at 100 nM,[3],17.1% and 18.1%
same,% dead cells at 300 nM,[3],19% and 20.6%
same,% dead cells at 3000 nM,[3],18.1% and 17.5%
same,"EC50 (nM), killing of target cells",[3],175 nM
same,"EC50 (nM), ADCC reporter cells",CD38 [6],12 nM
B21,Binding Assay (ELISA signal),CD38 [2],1.49
